Assay [1] deals with human CCR7 expressed on CHO-K1 cells (human CCR7 gene-introduced stable expression cell) (human) (UniProt P32248). The assay is described as follows: flow cytometry, 10 µg/mL antibody on hCCR7 gene-introduced CHO-K1 cells, PE anti-mouse IgG.
The target of assay [2] is T1, human native CCR7 on peripheral blood mononuclear cells of a healthy person (human, UniProt P32248 25-378).
T1 construct: whole, on cells; Endogenous receptor on primary cells of a donor; kept apart from the recombinant receptor on CHO-K1 cells; also called CCR7 on PBMC
T1 sequence (looked up): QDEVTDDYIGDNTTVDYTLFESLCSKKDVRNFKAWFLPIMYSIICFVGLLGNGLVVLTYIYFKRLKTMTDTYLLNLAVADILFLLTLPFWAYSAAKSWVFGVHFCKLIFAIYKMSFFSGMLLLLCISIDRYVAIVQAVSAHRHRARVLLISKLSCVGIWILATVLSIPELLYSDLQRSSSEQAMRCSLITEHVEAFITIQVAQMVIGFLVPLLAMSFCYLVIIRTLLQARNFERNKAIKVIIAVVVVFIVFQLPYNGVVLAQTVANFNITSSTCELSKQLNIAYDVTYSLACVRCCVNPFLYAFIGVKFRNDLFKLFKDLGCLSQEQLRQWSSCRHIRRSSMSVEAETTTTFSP
The assay can be described thus: flow cytometry, 0.5 µg antibody on 3×10^5 human PBMC, FITC anti-mouse IgG. As for the experimental part: From peripheral blood of a healthy person, mononuclear cells (PBMC) were isolated using Lymphoprep (Axis-Shield) according to a routine method. The isolated PBMC were suspended in a phosphate buffered saline (PBS) solution containing 1 mg/mL human gamma-globulin (Jackson Immuno Research Laboratories), and blocked by incubation at room temperature for 30 minutes. The PBMC (3×10⁵ cells) after blocking were incubated together with each anti-human CCR7 antibody (0.5 μg) or isotype control antibody (0.5 μg) at 4° C. for one hour. Thereafter, PBMC were washed three times with a washing buffer (PBS solution containing 0.1% fetal bovine serum). Then, a fluorescein isothiocyanate (FITC)-labeled anti-mouse IgG antibody (Beckman Coulter) was added as secondary antibody, and incubated at 4° C. for 1 hour. PBMC were washed again three times with the washing buffer, and then analyzed by using a flow cytometer (Beckman Coulter).
Background: In flow cytometry, cells or beads pass a laser one at a time.

The target of assay [3] is T2, human CCR7 expressed on CHO-K1 cells (human CCR7 gene-introduced stable expression cell) (human, UniProt P32248 25-378).
T2 sequence: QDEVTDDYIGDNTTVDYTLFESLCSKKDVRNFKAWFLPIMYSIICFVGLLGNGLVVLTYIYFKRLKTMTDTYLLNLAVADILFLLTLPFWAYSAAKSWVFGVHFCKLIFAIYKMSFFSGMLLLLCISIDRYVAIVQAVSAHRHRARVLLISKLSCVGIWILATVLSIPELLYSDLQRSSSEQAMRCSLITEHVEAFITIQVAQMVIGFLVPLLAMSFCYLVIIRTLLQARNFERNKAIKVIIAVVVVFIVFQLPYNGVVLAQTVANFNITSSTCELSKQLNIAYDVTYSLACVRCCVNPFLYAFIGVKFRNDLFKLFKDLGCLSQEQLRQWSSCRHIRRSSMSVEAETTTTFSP
The assay is described as follows: cell-based or functional assay.

The target in assay [4] is T2, human CCR7 expressed on CHO-K1 cells …. The assay is described as follows: flow cytometry, 10 µg/mL antibody on hCCR7 gene-introduced CHO-K1 cells, PE anti-mouse IgG. As for the experimental part:
A 10 μg/mL solution of an anti-human CCR7 monoclonal antibody or mouse control IgG (Thermo, negative control) in PBS was prepared (hereinafter, referred to as “antibody solution”). After washing hCCR7 gene-introduced cells with PBS, the antibody solution was incubated together with the cells. Further, the cells were washed with PBS, and added with a phycoerythrin-labeled anti-mouse IgG antibody (Beckman Coulter) as a secondary antibody. Then interaction between the cells, and the anti-human CCR7 antibody or the mouse control IgG was analyzed by using a flow cytometer FACScalibur (Becton, Dickinson). FIG. 9 is a histogram showing an analytical result of interaction between hCCR7 gene-introduced cells, and mouse control IgG. FIG. 10 is a histogram showing an analytical result of interaction between a hCCR7 gene-introduced cell, and anti-human CCR7 antibody R7-47. […] In FIGS. 9 and 10, the vertical axis represents the number of cells, and the horizontal axis represents fluorescence intensity originating from phycoerythrin (PE). Of the two areas (M1, M2), the cell belonging to M2 (right area) indicates the cells that binds to the antibody. In Table 2, a percentage of specifically binding cells is represented by M2/(M1+M2).

The text below walks through data of patent US20130195869A1 (SEKISUI CHEMICAL, published 2013).

Consider “mouse control IgG (Thermo, negative control) (antibody)”, for which, in assay [1], the Percentage of specifically binding cells (M2/(M1 + M2)) was found to be 0.7%.

B1: anti-human CCR7 monoclonal antibody R7-11 (hybridoma FERM BP-11373) (antibody, IgG1, V domains shown)
VH: EVQLQQSGPDLVMPGASVRISCKASGYSFTAYYMHWVKQSHGLSLEWIGRVNPNNGGTSYNRKFKDKAILTVDRSSSTAFMELRSLTSEDSAVYYCARSESDHFYAMDSWGQGNSVSVSS
VL: DIVMTQTPLSLPVSLGDQVFISCRSSQSLVHSNGNTYLCWFLQKPGQSPKLLIYRVSNRFSGVPDRFSGSGSGTDFTLKISRVEAEDLGVYFCFQGSHVPHTFGSGTK
notes: Mouse monoclonal antibody from hybridoma
Turning to B1, the “Percentage of specifically binding cells” value in assay [2] stood at 25.5%. Moreover, the “50% inhibition concentration (IC50) of the intracellular Ca^2+ rise caused by 1×10^-7 M CCL21” value (from here on “50% inhibition concentration (IC50)”) in assay [3] was determined as 16 nM. The “Percentage of specifically binding cells (M2/(M1 + M2))” value (“Percentage … (M2/(M1 + M2))” below) in assay [4] worked out at 100%.

B2: anti-human CCR7 monoclonal antibody R7-18 (hybridoma FERM BP-11374) (antibody, IgG1, V domains shown)
VH: EVQLQQSGPDLVKPGASVKISCKASGYSFTGYYMHWVKQSHGKSLEWIGRVNPNNGGTSYNKKFKVKAILTVDRSSSTAYMEFRSLTLEDSAVYYCARSESNNFYAMDYWGQGKSVTVSS
VL: DILMTQTPLSLPVSLGDQVSISCRSSQSLVHSNGNTYLCWYLQKPGQSPKLLIYRVSNRFSGVPDRFSGSGSGTDFTLKISRVEAEDLGVYFCFQGSHVPHTFGSGTK
notes: as for B1
Turning to B2, the “Percentage of specifically binding cells” value in assay [2] was found to be 40.5%. Also, in assay [3], the “50% inhibition concentration (IC50)” value turned out to be 11 nM. The “Percentage … (M2/(M1 + M2))” value in assay [4] is 100%.

B3: anti-human CCR7 monoclonal antibody R7-25 (hybridoma FERM BP-11375) (antibody, IgG1, V domains shown)
VH: EVMVVESGPGLMKPSQSLSLTCAVTGYSITSGYDWHWIRHFPGNILEWMGYINYSGSTNYKPSLKSRISITLDTSKNHFFLKLSSVTTEDTATYYCARGSYYSYEFAYWGQGTLVTVSA
VL: DIVMSQSPSSLAVSVGEKVTMSCKSSQRLLYYSTQKNYLAWYQQKPGQSPKLLIFWASTRESGVPNRFTGSGSGTDFTLTINSVKAEDLAVYYCQQYYTYPTFGGGTK
notes: as for B1
Regarding B3, in assay [2], the “Percentage of specifically binding cells” value is 47%. In addition, in assay [3], the “50% inhibition concentration (IC50)” value came out at 22 nM. For the same molecule, the “Percentage … (M2/(M1 + M2))” value in assay [4] came to 100%.

B4: anti-human CCR7 monoclonal antibody R7-01 (hybridoma FERM BP-11369) (antibody, IgG1, V domains shown)
VH: EVQLQQSGPELVKPGTSVKMSCKGSGYTFTDYYINWVRQSHGKSLEWIGRVNPGNGGTSYNQRFKGKATLTVDKFLSTAFMQLNSLTSEDSAVYFCARTGTYYNYDRGGFAYWGHGTLVTVSA
VL: DVLLTQSPVSLPVSLGDQASISCRCSQNIVHINGNTYLEWFLQKPGQSPKLLIYKVSNRFSGVPDRFSGSGSGTDFTLKIRRVEAEDLGVYYCFQGSHVPHTFGSGTK
notes: Mouse monoclonal antibody purified from hybridoma supernatant on protein G
As for B4, in assay [2], the “Percentage of specifically binding cells” value came to 10.8%. The “50% inhibition concentration (IC50)” value in assay [3] was determined as 340 nM. In addition, the “Percentage … (M2/(M1 + M2))” value in assay [4] was 99.8%.

B5: anti-human CCR7 monoclonal antibody R7-47 (hybridoma FERM BP-11376) (antibody, IgG1, V domains shown)
VH: EVQLQQSGPDLVKPGTSVKISCKASGYKFTDFNMDWVRQRHGKSLEWIGDVNPQNGEIFYNQKFRGKATLTVVKSSSTTYLELRSLTSEDTAVYFCTRLEFDYTGSNGFAYWGQGTLVTVSA
VL: DILMTQTPLSLPVSLGDQASISCRSSQTLVHRNGNTYLEWYLQKPGQSPKLLIYKVSNRFSGVPDRFSGRGSGTDFTLKISRVEAEDQGIYYCFQGSHDPWTFGGGTK
notes: as for B1
As to B5, the “Percentage of specifically binding cells” value in assay [2] is 49.3%. Moreover, in assay [3], the “50% inhibition concentration (IC50)” value is 7.4 nM. Further, the “Percentage … (M2/(M1 + M2))” value in assay [4] was 99.9%.

B6: anti-human CCR7 monoclonal antibody R7-02 (hybridoma FERM BP-11404) (antibody, IgG2a, V domains shown)
VH: QVQLQQSGAELERPGASVKLSCTASGFNIRDDYVHWVKQRPEQGLEWIGRIDPANGNTKYGPKFQAKATLTADTSSNTAYLQLGSLTSEDTAVYYCTRSFYDYDLFVPWGQGTLVTVSA
VL: DAVVTQESALTTSPGETVTLTCRSSTGAVTKNNFANWVQEKPDHLFTGLIGGNNIRAPGVPARFSGSLIGDKAALSITGAQTEDEAIYFCALWYSNHWVFGGGTK
notes: as for B1
For B6, the “Percentage of specifically binding cells” value in assay [2] is 44.6%. Further, the “50% inhibition concentration (IC50)” value in assay [3] stood at 46 nM. Also, the “Percentage … (M2/(M1 + M2))” value in assay [4] is 100%.

B7: anti-human CCR7 monoclonal antibody R7-09 (hybridoma FERM BP-11372) (antibody, IgG2a, V domains shown)
VH: EVQLQQSGTELVRPGASVKLSCTASGFNIKDDYIHWVKQRPDQGLEWIGRIDPANGNTKYAPKFQDKATITSDTSSNTAYLQLSSLTSEDTAVYYCARSFYDYDLFASWGQGTLVSVSA
VL: DAVVTQESALTTSPGGTVILTCRSSTGAVTTSNFANWVQEKPDHLFSGLISGNNKRAPGVPARFSGSLIGDKAALSITGAQTEDEAMYFCALWYNNHWVFGGGTK
notes: as for B1
B7: the “Percentage of specifically binding cells” value in assay [2] is 32.9%. In addition, in assay [3], the “50% inhibition concentration (IC50)” value was found to be 32 nM. Further, in assay [4], the “Percentage … (M2/(M1 + M2))” value turned out to be 100%.

B8: anti-human CCR7 monoclonal antibody R7-05 (hybridoma FERM BP-11371) (antibody, IgG2b, V domains shown)
VH: EVQLQQSGAELVRPGASVKLSCTASGFNIKDDYIHWVKQRPEQGLDWIGRVDPADGNTKYAPNFHDKATVTADTSSNTAYLQLSSLTSEDTAVYYCARSFYDYDLFASWGQGTLVTVSA
VL: DAVVTQESALTTSPGETVTLTCRSSTGAVTTSNFANWVQEKPDHLFTGLISSNNKRAPGVPARFSGSLIGDKAALSITGAQTEDEAIYFCALWYSNHWVFGGGTK
notes: as for B1
Turning to B8, the “Percentage of specifically binding cells” value in assay [2] is 37.3%. Also, in assay [3], the “50% inhibition concentration (IC50)” value was 94 nM. Moreover, the “Percentage … (M2/(M1 + M2))” value in assay [4] turned out to be 100%.
